Laboratory results reported in patent US20070004636.

T1: human hepatocyte nuclear factor 1α (HNF-1α), His and Xpress-tagged at the N-terminus (not fully specified)
T1 chain: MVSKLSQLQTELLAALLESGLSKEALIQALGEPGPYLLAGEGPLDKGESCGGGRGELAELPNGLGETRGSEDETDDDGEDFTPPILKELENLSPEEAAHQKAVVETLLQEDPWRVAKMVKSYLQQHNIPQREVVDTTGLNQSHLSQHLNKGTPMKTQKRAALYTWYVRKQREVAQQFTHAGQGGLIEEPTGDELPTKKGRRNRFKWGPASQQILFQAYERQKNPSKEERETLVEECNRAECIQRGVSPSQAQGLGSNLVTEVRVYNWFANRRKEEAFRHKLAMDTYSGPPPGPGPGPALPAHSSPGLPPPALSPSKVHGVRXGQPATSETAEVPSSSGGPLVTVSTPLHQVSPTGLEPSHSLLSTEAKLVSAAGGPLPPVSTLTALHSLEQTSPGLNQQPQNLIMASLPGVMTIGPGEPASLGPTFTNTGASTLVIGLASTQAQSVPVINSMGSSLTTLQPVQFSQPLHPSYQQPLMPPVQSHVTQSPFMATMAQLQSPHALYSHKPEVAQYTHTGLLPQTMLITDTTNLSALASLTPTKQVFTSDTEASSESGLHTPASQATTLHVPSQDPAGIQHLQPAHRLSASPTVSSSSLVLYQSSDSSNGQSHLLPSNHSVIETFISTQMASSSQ

T2: human hepatocyte nuclear factor 4α (HNF-4α), His and Xpress-tagged at the N-terminus
T2 chain: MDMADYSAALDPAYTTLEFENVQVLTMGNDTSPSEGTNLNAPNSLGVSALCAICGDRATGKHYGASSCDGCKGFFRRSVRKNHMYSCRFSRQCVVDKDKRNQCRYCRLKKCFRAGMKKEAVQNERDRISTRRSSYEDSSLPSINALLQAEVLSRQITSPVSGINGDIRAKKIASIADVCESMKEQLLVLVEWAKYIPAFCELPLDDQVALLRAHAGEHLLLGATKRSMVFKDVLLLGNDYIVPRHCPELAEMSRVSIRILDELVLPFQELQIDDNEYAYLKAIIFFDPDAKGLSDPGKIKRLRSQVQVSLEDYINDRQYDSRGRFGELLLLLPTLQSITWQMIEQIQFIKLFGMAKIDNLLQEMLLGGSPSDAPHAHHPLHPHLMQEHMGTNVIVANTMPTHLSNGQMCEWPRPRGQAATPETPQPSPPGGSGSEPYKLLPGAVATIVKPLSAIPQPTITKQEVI

B1: rat m-calpain (Calpain 2, rat recombinant, E. coli, Calbiochem, Inc.) (protein)
chain: MAGIAMKLAKDREAAEGLGSHERAIKYLNQDYETLRNECLEAGALFQDPSFPALPSSLGFKELGPYSSKTRGIEWKRPTEICADPQFIIGGATRTDICQGALGDCWLLAAIASLTLNEEILARVVPLDQSFQENYAGIFHFQFWQYGEWVEVVVDDRLPTKDGELLFVHSAEGSEFWSALLEKAYAKINGCYEALSGGATTEGFEDFTGGIAEWYELRKPPPNLFKIIQKALEKGSLLGCSIDITSAADSEAVTYQKLVKGHAYSVTGAEEVESSGSLQKLIRIRNPWGQVEWTGKWNDNCPSWNTVDPEVRANLTERQEDGEFWMSFSDFLRHYSRLEICNLTPDTLTCDSYKKWKLTKMDGNWRRGSTAGGCRNYPNTFWMNPQYLIKLEEEDEDDEDGERGCTFLVGLIQKHRRRQRKMGEDMHTIGFGIYEVPEELTGQTNIHLSKNFFLTTRARERSDTFINLREVLNRFKLPPGEYVLVPSTFEPHKNGDFCIRVFSEKKADYQTVDDEIEANIEEIEANEEDIGDGFRRLFAQLAGEDAEISAFELQTILRRVLAKREDIKSDGFSIETCKIMVDMLDEDGSGKLGLKEFYILWTKIQKYQKIYREIDVDRSGTMNSYEMRKALEEAGFKLPCQLHQVIVARFADDELIIDFDNFVRCLVRLEILFKIFKQLDPENTGTIQLDLISWLSFSVL
B2: human µ-calpain extracted from human erythrocytes (Calpain 1, human erythrocytes; Calbiochem, Inc.) (protein)
chain: SEEIITPVYCTGVSAQVQKQRARELGLGRHENAIKYLGQDYEQLRVRCLQSGTLFRDEAFPPVPQSLGYKDLGPNSSKTYGIKWKRPTELLSNPQFIVDGATRTDICQGALGDCWLLAAIASLTLNDTLLHRVVPHGQSFQNGYAGIFHFQLWQFGEWVDVVVDDLLPIKDGKLVFVHSAEGNEFWSALLEKAYAKVNGSYEALSGGSTSEGFEDFTGGVTEWYELRKAPSDLYQIILKALERGSLLGCSIDISSVLDMEAITFKKLVKGHAYSVTGAKQVNYRGQVVSLIRMRNPWGEVEWTGAWSDSSSEWNNVDPYERDQLRVKMEDGEFWMSFRDFMREFTRLEICNLTPDALKSRTIRKWNTTLYEGTWRRGSTAGGCRNYPATFWVNPQFKIRLDETDDPDDYGDRESGCSFVLALMQKHRRRERRFGRDMETIGFAVYEVPPELVGQPAVHLKRDFFLANASRARSEQFINLREVSTRFRLPPGEYVVVPSTFEPNKEGDFVLRFFSEKSAGTVELDDQIQANLPDEQVLSEEEIDENFKALFRQLAGEDMEISVKELRTILNRIISKHKDLRTKGFSLESCRSMVNLMDRDGNGKLGLVEFNILWNRIRNYLSIFRKFDLDKSGSMSAYEMRMAIESAGFKLNKKLYELIITRYSEPDLAVDFDNFVCCLVRLETMFRFFKTLDTDLDGVVTFDLFKWLQLTMFA

Columns and labels:
[1] = biological target: human insulin promoter factor 1 (IPF-1), His and Xpress-tagged at the N-terminus
human insulin promoter factor 1 (IPF-1), His and Xpress-tagged at the N-terminus, sequence (chain, as listed by the source): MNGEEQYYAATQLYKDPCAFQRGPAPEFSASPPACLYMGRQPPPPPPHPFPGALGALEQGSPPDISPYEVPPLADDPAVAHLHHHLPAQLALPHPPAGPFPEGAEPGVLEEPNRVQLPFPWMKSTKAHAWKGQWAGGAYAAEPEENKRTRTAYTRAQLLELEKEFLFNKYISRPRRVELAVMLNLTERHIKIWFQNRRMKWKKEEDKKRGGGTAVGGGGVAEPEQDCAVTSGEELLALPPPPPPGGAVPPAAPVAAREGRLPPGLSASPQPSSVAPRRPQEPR

[2] = biological target: T1, human hepatocyte nuclear factor 1α …
[3] = biological target: T2, human hepatocyte nuclear factor 4α …

Protein	in vitro protein degradation test, Western blotting with anti-Xpress and anti-IPF-1 antibody [1]	in vitro protein degradation test, Western blotting with anti-Omni/M21 and anti-HNF-1α antibody [2]	in vitro protein degradation test, Western blotting with anti-HNF-4α antibody [3]
B1	the in vitro degradation of IPF-1 by each of human µ-calpain, rabbit m-calpain and rat m-calpain was observed	the in vitro degradation of HNF-1α by each of human µ-calpain, rabbit m-calpain and rat m-calpain was observed	–
B2	the in vitro degradation of IPF-1 by each of human µ-calpain, rabbit m-calpain and rat m-calpain was observed	the in vitro degradation of HNF-1α by each of human µ-calpain, rabbit m-calpain and rat m-calpain was observed	the degradation of HNF-4α by human µ-calpain was observed
